Results reported in patent US20210388087A1 (Chugai, published 2021).
Residue numbers refer to the chain shown, from its start. Numbers in names are those of the source.

T1: Human CD3eg linker (human)
T1 construct: single-chain construct; also called recombinant human CD3
T1 chain: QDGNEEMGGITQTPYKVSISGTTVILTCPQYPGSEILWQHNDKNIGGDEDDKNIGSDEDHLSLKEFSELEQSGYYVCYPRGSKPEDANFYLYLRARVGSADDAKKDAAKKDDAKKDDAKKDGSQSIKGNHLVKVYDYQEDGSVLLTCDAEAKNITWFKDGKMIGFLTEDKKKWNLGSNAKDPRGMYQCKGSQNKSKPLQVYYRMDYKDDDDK

B1: dBBDu183H V63S/dBBDu072L (antibody, name in Kabat numbering, V domains shown)
VH: QVQLVESGGGLVQPGRSLRLSCAASGFTFSNAWMHWVRQAPGKGLEWVAQIKDKGNAYAAYYAPSSKGRFTISRDDSKNSIYLQMNSLKTEDTAVYYCHYVHYASASTVLPAFGVDAWGQGTTVTVSS
VL: DIVMTQSPLSLPVTPGEPASISCQASQELVHMNRNTYLHWYQQKPGQAPRLLIYKVSNRFPGVPDRFSGSGSGTDFTLKISRVEAEDVGVYYCAQGTSVPFTFGQGTKLEIK
B2: dBBDu183H V100iY/dBBDu072L (antibody, name in Kabat numbering, V domains shown)
VH: B1 VH with S66V, V115Y
VL: B1 VL
B3: dBBDu183H V95Y/dBBDu072L (antibody, name in Kabat numbering, V domains shown)
VH: B1 VH with S66V, V101Y
VL: B1 VL
B4: dBBDu183H V95G/dBBDu072L (antibody, name in Kabat numbering, V domains shown)
VH: B1 VH with S66V, V101G
VL: B1 VL
B5: dBBDu183H V100cW/dBBDu072L (antibody, name in Kabat numbering, V domains shown)
VH: B1 VH with S66V, V109W
VL: B1 VL
B6: dBBDu183H V100cT/dBBDu072L (antibody, name in Kabat numbering, V domains shown)
VH: B1 VH with S66V, V109T
VL: B1 VL
B7: dBBDu183H V95H/dBBDu072L (antibody, name in Kabat numbering, V domains shown)
VH: B1 VH with S66V, V101H
VL: B1 VL
B8: dBBDu183H V100cK/dBBDu072L (antibody, name in Kabat numbering, V domains shown)
VH: B1 VH with S66V, V109K
VL: B1 VL
B9: dBBDu183H V100iN/dBBDu072L (antibody, name in Kabat numbering, V domains shown)
VH: B1 VH with S66V, V115N
VL: B1 VL
B10: dBBDu183H V100iD/dBBDu072L (antibody, name in Kabat numbering, V domains shown)
VH: B1 VH with S66V, V115D
VL: B1 VL
B11: dBBDu183H V100cE/dBBDu072L (antibody, name in Kabat numbering, V domains shown)
VH: B1 VH with S66V, V109E
VL: B1 VL
B12: dBBDu183H V100iR/dBBDu072L (antibody, name in Kabat numbering, V domains shown)
VH: B1 VH with S66V, V115R
VL: B1 VL
B13: dBBDu183H V63W/dBBDu072L (antibody, name in Kabat numbering, V domains shown)
VH: B1 VH with S66W
VL: B1 VL
B14: dBBDu183H V100cH/dBBDu072L (antibody, name in Kabat numbering, V domains shown)
VH: B1 VH with S66V, V109H
VL: B1 VL
B15: dBBDu183H V100cQ/dBBDu072L (antibody, name in Kabat numbering, V domains shown)
VH: B1 VH with S66V, V109Q
VL: B1 VL
B16: dBBDu183H V100cY/dBBDu072L (antibody, name in Kabat numbering, V domains shown)
VH: B1 VH with S66V, V109Y
VL: B1 VL
B17: dBBDu183H V95E/dBBDu072L (antibody, name in Kabat numbering, V domains shown)
VH: B1 VH with S66V, V101E
VL: B1 VL
B18: dBBDu183H V100cD/dBBDu072L (antibody, name in Kabat numbering, V domains shown)
VH: B1 VH with S66V, V109D
VL: B1 VL
B19: dBBDu183H V95R/dBBDu072L (antibody, name in Kabat numbering, V domains shown)
VH: B1 VH with S66V, V101R
VL: B1 VL
B20: dBBDu183H V100iK/dBBDu072L (antibody, name in Kabat numbering, V domains shown)
VH: B1 VH with S66V, V115K
VL: B1 VL
B21: dBBDu183H V95F/dBBDu072L (antibody, name in Kabat numbering, V domains shown)
VH: B1 VH with S66V, V101F
VL: B1 VL
B22: dBBDu183H V100iF/dBBDu072L (antibody, name in Kabat numbering, V domains shown)
VH: B1 VH with S66V, V115F
VL: B1 VL
B23: dBBDu183H V100iE/dBBDu072L (antibody, name in Kabat numbering, V domains shown)
VH: B1 VH with S66V, V115E
VL: B1 VL
B24: dBBDu183H V95Q/dBBDu072L (antibody, name in Kabat numbering, V domains shown)
VH: B1 VH with S66V, V101Q
VL: B1 VL
B25: dBBDu183H V100cF/dBBDu072L (antibody, name in Kabat numbering, V domains shown)
VH: B1 VH with S66V, V109F
VL: B1 VL
B26: dBBDu183H V95T/dBBDu072L (antibody, name in Kabat numbering, V domains shown)
VH: B1 VH with S66V, V101T
VL: B1 VL
B27: dBBDu183H V100iQ/dBBDu072L (antibody, name in Kabat numbering, V domains shown)
VH: B1 VH with S66V, V115Q
VL: B1 VL
B28: dBBDu183H V100iS/dBBDu072L (antibody, name in Kabat numbering, V domains shown)
VH: B1 VH with S66V, V115S
VL: B1 VL
B29: dBBDu183H V100cG/dBBDu072L (antibody, name in Kabat numbering, V domains shown)
VH: B1 VH with S66V, V109G
VL: B1 VL
B30: dBBDu183H V100iT/dBBDu072L (antibody, name in Kabat numbering, V domains shown)
VH: B1 VH with S66V, V115T
VL: B1 VL
B31: dBBDu183H V95D/dBBDu072L (antibody, name in Kabat numbering, V domains shown)
VH: B1 VH with S66V, V101D
VL: B1 VL
B32: dBBDu183H V95W/dBBDu072L (antibody, name in Kabat numbering, V domains shown)
VH: B1 VH with S66V, V101W
VL: B1 VL
B33: dBBDu183H V100iH/dBBDu072L (antibody, name in Kabat numbering, V domains shown)
VH: B1 VH with S66V, V115H
VL: B1 VL
B34: dBBDu183H V100iW/dBBDu072L (antibody, name in Kabat numbering, V domains shown)
VH: B1 VH with S66V, V115W
VL: B1 VL
B35: dBBDu183H V63Y/dBBDu072L (antibody, name in Kabat numbering, V domains shown)
VH: B1 VH with S66Y
VL: B1 VL
B36: dBBDu183H V95S/dBBDu072L (antibody, name in Kabat numbering, V domains shown)
VH: B1 VH with S66V, V101S
VL: B1 VL
B37: dBBDu183H V95N/dBBDu072L (antibody, name in Kabat numbering, V domains shown)
VH: B1 VH with S66V, V101N
VL: B1 VL
B38: dBBDu183H V100cR/dBBDu072L (antibody, name in Kabat numbering, V domains shown)
VH: B1 VH with S66V, V109R
VL: B1 VL
B39: dBBDu183H V63T/dBBDu072L (antibody, name in Kabat numbering, V domains shown)
VH: B1 VH with S66T
VL: B1 VL
B40: dBBDu183H Y94D/dBBDu072L (antibody, name in Kabat numbering, V domains shown)
VH: B1 VH with S66V, Y100D
VL: B1 VL
B41: dBBDu183H V95K/dBBDu072L (antibody, name in Kabat numbering, V domains shown)
VH: B1 VH with S66V, V101K
VL: B1 VL
B42: dBBDu183H V100cS/dBBDu072L (antibody, name in Kabat numbering, V domains shown)
VH: B1 VH with S66V, V109S
VL: B1 VL
B43: dBBDu183H V100iG/dBBDu072L (antibody, name in Kabat numbering, V domains shown)
VH: B1 VH with S66V, V115G
VL: B1 VL
B44: dBBDu183H Y94E/dBBDu072L (antibody, name in Kabat numbering, V domains shown)
VH: B1 VH with S66V, Y100E
VL: B1 VL
B45: dBBDu183H V100cN/dBBDu072L (antibody, name in Kabat numbering, V domains shown)
VH: B1 VH with S66V, V109N
VL: B1 VL

Molecular target: T1, Human CD3eg linker
Experiment: SPR, vs unmutated H183/L072

| fold change of affinity | Binder |
| --- | --- |
| 1.1 fold | B1 |
| 3 fold | B2 |
| 0 fold | B3 |
| 0 fold | B4 |
| 1.5 fold | B5 |
| 1 fold | B6 |
| 0 fold | B7 |
| 1.2 fold | B8 |
| 5 fold | B9 |
| 2.4 fold | B10 |
| 0.8 fold | B11 |
| 4 fold | B12 |
| 0.8 fold | B13 |
| 1.2 fold | B14 |
| 1.4 fold | B15 |
| 1.3 fold | B16 |
| 0 fold | B17 |
| 0.8 fold | B18 |
| 0 fold | B19 |
| 2.4 fold | B20 |
| 0 fold | B21 |
| 3.2 fold | B22 |
| 1.4 fold | B23 |

| fold change of affinity | Binder |
| --- | --- |
| 0 fold | B24 |
| 1.8 fold | B25 |
| 0 fold | B26 |
| 3.6 fold | B27 |
| 1.9 fold | B28 |
| 1.5 fold | B29 |
| 1 fold | B30 |
| 0 fold | B31 |
| 0 fold | B32 |
| 2.2 fold | B33 |
| 4.9 fold | B34 |
| 1.1 fold | B35 |
| 0 fold | B36 |
| 0 fold | B37 |
| 1.5 fold | B38 |
| 1.2 fold | B39 |
| 0 fold | B40 |
| 0 fold | B41 |
| 1.1 fold | B42 |
| 1.8 fold | B43 |
| 0 fold | B44 |
| 1 fold | B45 |
